Reference: US20230272016A1, “PEPTIDES FOR IMMUNOTHERAPY” (Second Genome, Inc., priority 2020, published 2023)

Assays:
Format in all cases: cell-based
CXCL10 production = assay: Three point dose response cytokine screen of microbiome peptides; settings: three point dose response curve
Method: Studies were performed to identify target peptides that induced CXCL10 production. Target peptides identified from human microbiomes isolated from humans that responded to anti-PD-1 therapy were each tested in a three point dose response curve with TNF-α, CXCL10, IL6, and INF-γ. […] Peptide sequences and characteristics can be found in Tables 13-15.

SSTR1 = molecular target: T1, SSTR1 (Homo sapiens, UniProt P30872); assay: PathHunter β-Arrestin GPCR assay (gpcrMAX)
T1 construct: expressed in transfected cells
Text: The PathHunter® β-Arrestin Assay monitored activation of a panel of 168 G-protein coupled receptors (GPCRs) with […] activation of the GPCR in agonist and antagonist mode.
where the test sample is the peptide, the vehicle control=DMSO (0% activity), and the control ligand=control compound (100% activity).
Peptides SG-3-00802 and SG-3-05021 were identified as an agonist, an antagonist, a PAM (Positive Allosteric Modulator), or an inverse-agonist. Agonist, antagonist, PAM, and inverse-agonist were identified according to the guidelines in Table 18. The basal activity/noise is a % activity of −20% to 20% for both agonist and antagonist modes. A PAM (Positive Allosteric Modulator) binds to a receptor, at a different site than the agonist, to change the receptor's response to the agonist. An inverse-Agonist is a binding partner with agonistic shutting down of basal activity in the cell. An antagonist antagonizes the activity of a particular binding partner.

CCR7 = molecular target: T2, CCR7 (Homo sapiens, UniProt P32248); assay: SelectScreen chemokine receptor U2OS agonist/antagonist assay; settings: CCR7 expressing U2OS cells
T2 construct: expressed in transfected cells
T2 sequence (P32248 25-378): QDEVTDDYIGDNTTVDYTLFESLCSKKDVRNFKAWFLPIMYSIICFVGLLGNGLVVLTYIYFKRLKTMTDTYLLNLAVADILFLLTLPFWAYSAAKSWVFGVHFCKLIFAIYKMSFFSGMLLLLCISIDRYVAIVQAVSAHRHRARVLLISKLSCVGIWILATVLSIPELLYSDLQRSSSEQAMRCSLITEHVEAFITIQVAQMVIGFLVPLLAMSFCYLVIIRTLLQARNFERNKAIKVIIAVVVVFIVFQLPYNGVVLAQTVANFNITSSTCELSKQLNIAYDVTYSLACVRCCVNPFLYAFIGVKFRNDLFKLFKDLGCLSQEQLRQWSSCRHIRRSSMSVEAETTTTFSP
Method: (§1) Peptides SG-3-00802 and SG-3-05021 were screened for agonist and antagonist activity of the chemokine receptors CCR7, CXCR3, and CXCR4.
(§2) In agonist assays, chemokine receptor expressing U2OS cells are thawed and resuspended in Assay Media (DMEM, 1% dialyzed FBS, 25 mM HEPES pH 7.3, 0.1 mM NEAA, 100 U/mL/100 μg/mL Pen/Strep) to a concentration of 312,500 cells/mL. 4 μL of a 10×serial dilution of I-TAC (control agonist starting concentration, 500 nM) or compounds are added to appropriate wells of a 384-well TC-Treated assay plate. 32 μL of cell suspension (10,000 cells) is added to each well. 4 μL of Assay Media is added to all wells to bring the final assay volume to 40 μL. The plate is incubated for 16-24 hours at 37° C./5% CO2 in a humidified incubator. 8 μL of 1 μM Substrate+Solution D Loading Solution is added to each well and the plate is incubated for 2 hours at room temperature. The plate is read on a fluorescence plate reader.
(§3) In antagonist assays, CXCR3-bla U2OS cells were thawed and prepared as described above for the Agonist assay. 4 μL of 10×compounds or assay media was added to appropriate wells of a TC-Treated assay plate. 32 μL of cell suspension was added to the wells and pre-incubated at 37° C./5% CO2 in a humidified incubator with compounds and control antagonist titration for 30 minutes. 4 μL of 10×control agonist I-TAC at the pre-determined EC80 concentration is added to wells containing the control antagonist or compounds. The plate is incubated for 16-24 hours at 37° C./5% CO2 in a humidified incubator. 8 μL of 1 μM Substrate+Solution D Loading Solution is added to each well and the plate is incubated for 2 hours at room temperature. The plate is read on a fluorescence plate reader.

CXCR4 = molecular target: T3, CXCR4 (Homo sapiens, UniProt P61073); assay: as above; settings: CXCR4 expressing U2OS cells
T3 construct: expressed in transfected cells
Method: as §1, §2, §3

[1] = system: Human monocyte-derived dendritic cells (moDCs); assay: moDC stimulation with low dose LPS and peptide, flow cytometry; settings: LPS 2 ng/mL with peptide 10 μM
Method: Human monocyte-derived dendritic cells (moDCs) were stimulated with low dose lipopolysaccharide (LPS) (2 ng/mL) alone, LPS with peptides SG-3-00802 (10 μM) or SG-3-05021 (10 μM), and LPS (2 ng/mL) with IFNg (50 ng/mL) as a positive control. After stimulation of moDCs, flow cytometry was used to determine induction of the CSCR3 receptor.

T3 sequence (P61073 whole entry): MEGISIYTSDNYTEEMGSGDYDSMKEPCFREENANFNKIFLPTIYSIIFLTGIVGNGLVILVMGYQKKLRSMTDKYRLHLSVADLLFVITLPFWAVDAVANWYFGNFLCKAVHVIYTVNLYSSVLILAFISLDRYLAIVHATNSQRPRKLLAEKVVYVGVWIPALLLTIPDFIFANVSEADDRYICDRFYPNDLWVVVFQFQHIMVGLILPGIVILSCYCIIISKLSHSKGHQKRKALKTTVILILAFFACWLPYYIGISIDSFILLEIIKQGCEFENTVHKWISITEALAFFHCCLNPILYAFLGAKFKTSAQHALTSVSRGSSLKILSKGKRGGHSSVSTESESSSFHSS
T1 sequence (P30872 whole entry): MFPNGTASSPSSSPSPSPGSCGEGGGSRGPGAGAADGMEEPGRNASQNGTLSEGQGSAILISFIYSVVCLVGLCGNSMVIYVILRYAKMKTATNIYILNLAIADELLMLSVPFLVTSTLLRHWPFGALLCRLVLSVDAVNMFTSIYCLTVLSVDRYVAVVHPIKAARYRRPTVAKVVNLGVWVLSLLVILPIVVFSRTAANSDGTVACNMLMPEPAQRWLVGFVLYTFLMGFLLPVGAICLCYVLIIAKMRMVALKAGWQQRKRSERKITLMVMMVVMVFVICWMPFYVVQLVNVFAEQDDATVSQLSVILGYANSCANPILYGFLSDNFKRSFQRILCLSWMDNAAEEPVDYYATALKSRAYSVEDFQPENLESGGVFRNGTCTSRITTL

Sequence	CXCL10 induction (CXCL10 production)	GPCR target assay Interpretation (SSTR1)	SelectScreen Agonist Mode (CCR7)	SelectScreen Agonist Mode (CXCR4)	CXCR3 receptor internalization [1]	DC-SIGN expression [1]	SelectScreen Antagonist Mode (CXCR4)
LGKTDWIEKYFKVKKEKIDKMQRFLQG [SG-3-05021, peptide from bacteroides.clarus.dsm.22519]	high CXCL10 induction	Inverse-agonist and PAM	no agonistic activity and No	no agonistic activity and No	did not induce CXCR3 receptor internalization	down-regulate DC-SIGN	
MKVRPSVKPMCEKCKIIRRKGRVMVICENPKHKQRQG [SG-3-00802, peptide from oscillibacter.sp t_155102]	high CXCL10 induction	Inverse-agonist	weak agonistic activity and No	no agonistic activity and No	did not induce CXCR3 receptor internalization	down-regulate DC-SIGN	moderate antagonistic activity and no antagonistic activity and Yes
